Measurements reported in US9260500B2, “Peptide and use thereof” (Takeda Pharmaceutical Company Limited, priority 2009, dated 2016).
Non-standard residues stand in square brackets, D forms with d. tBuAla = CC(C)(C)C[C@H](N)C(=O)O; dHyp = O=C(O)[C@H]1C[C@H](O)CN1; Cha = N[C@@H](CC1CCCCC1)C(=O)O; dIva = CC[C@@](C)(N)C(=O)O; dPip = O=C(O)[C@H]1CCCCN1; dNMeA = CN[C@H](C)C(=O)O; Aib = CC(C)(N)C(=O)O

Columns and labels:
human Y2 receptor [1] = target: T1, human Y2 receptor (Homo sapiens, UniProt P49146); assay: Receptor Binding Assay (RBA) for Human Y2, [125I]-PYY displacement on hY2R/CHO membrane fraction; conditions: IC50 of test compound/IC50 of PYY(3-36) (PYY(3-36) taken as 1)
T1 construct: expressed in transfected cells; membrane fraction
T1 sequence (P49146 1-381): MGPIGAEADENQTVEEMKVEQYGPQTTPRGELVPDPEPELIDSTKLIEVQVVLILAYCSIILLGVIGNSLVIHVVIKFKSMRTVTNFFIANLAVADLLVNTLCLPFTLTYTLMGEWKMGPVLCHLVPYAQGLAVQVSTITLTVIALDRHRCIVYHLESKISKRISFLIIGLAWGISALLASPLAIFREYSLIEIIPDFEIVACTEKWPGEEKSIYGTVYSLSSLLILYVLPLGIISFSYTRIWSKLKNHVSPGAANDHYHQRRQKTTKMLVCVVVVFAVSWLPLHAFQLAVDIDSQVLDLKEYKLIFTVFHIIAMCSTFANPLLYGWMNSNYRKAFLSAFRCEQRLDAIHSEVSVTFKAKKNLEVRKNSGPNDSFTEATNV
Protocol: (1) Construction of Expression Plasmid for the Human Y2 Receptor (Y2R) Gene
PCR was performed by a reaction using Pfu DNA polymerase ([…]), with a human brain cDNA (PT3158-1, Clontech) as the template, wherein synthetic DNAs with the following sequences were used as a combination of 5′ and 3′ primers, whereby the human Y2R gene was cloned. Primer 1 was prepared on the basis of base sequence information on the human Y2R gene (Refseq ID No. NM_000910) with the addition of Kozak's consensus sequence. Primer 2 was prepared on the basis of base sequence information on the human Y2R gene.
The PCR product obtained was cloned into pCR4-Blunt-TOPO (Invitrogen), and the plasmid was extracted according to a conventional method (QIAwell 8 Plus, QIAGEN). After confirming the base sequence, the human Y2R gene was re-cloned by a PCR reaction with the plasmid DNA as the template, using Primer 1 as the 5′ primer and Primer 2 as the 3′ primer. The PCR was performed using the Pyrobest DNA polymerase (TaKaRa). The PCR product obtained was re-cloned into pCR-Blunt II-TOPO (Invitrogen), and the plasmid was extracted according to a conventional method (QIAGEN). An Xho I restriction enzyme digestion site and an Spe I restriction enzyme digestion site are present in the cloning site of the pCR-Blunt II-TOPO; a plasmid clone was selected wherein the human Y2R gene was inserted in the orientation such that the Xho I restriction enzyme digestion site was positioned upstream of Primer 1, and the Spe I restriction enzyme digestion site was positioned downstream of Primer 2. After confirming the base sequence, the plasmid clone was digested with the restriction enzymes Xho I and Spe I to yield a DNA fragment. The DNA fragment was inserted into the animal cell expression vector pAKKO-111H (the same plasmid as pAKKO-1.111H described in Biochem. Biophys. Acta, Hinuma, S. et al., 1219, 251-259 (1994)), which was enzymatically digested with Sal I and Spe I, to yield the expression plasmid pAK-hY2R (pAKKO-111H/Y2R).
(2) Test Method: Receptor Binding Assay (RBA) for Human Y2
A human NPY2R (hY2R) stable expression cell line was acquired by transducing the animal cell expression plasmid pAK-hY2R into CHO/dhfr-cells using the CellPhect Transfection kit (Amersham Pharmacia Biotech Co.). First, 240 μl of Buffer A (attached to the CellPhect Transfection kit) was added to 9.6 μg of the plasmid DNA dissolved in 240 μl of distilled water; this mixture was stirred and allowed to stand for 10 minutes, after which 480 μL of Buffer B (attached to the CellPhect Transfection kit) was added, and the mixture was vigorously stirred to form a liposome containing the DNA. 2.5×10^5 or 4×10^5 CHO/dhfr− cells (obtained from ATCC) were seeded to 60 mm petri dishes, and cultured in Ham's F-12 medium (Sigma Co.) containing 10% fetal bovine serum (BioWest Co.) at 37° C. in 5% gaseous carbon dioxide for 1 day, after which 480 μL of the liposome was added drop by drop on to the cells in each petri dish. This was cultured at 37° C. in 5% gaseous carbon dioxide for 6 hours, after which the cells were twice washed with serum-free Ham's F-12 medium; 3 mL of 15% glycerol was added onto the cells in the petri dish and treated for 2 minutes. This was again washed 3 times with serum-free Ham's F-12 medium, after which the cells were cultured in Ham's F-12 medium containing 10% fetal bovine serum at 37° C. in 5% gaseous carbon dioxide. The cells were dispersed by trypsinization and recovered from the petri dishes, and seeded to a 6-well plate at 2.5×10^4 or 4×10^4 cells per well; cultivation was begun in Dulbecco's modified Eagle medium <DMEM> medium (Sigma Co.) containing dialyzed 10% fetal bovine serum (Invitrogen Co.) at 37° C. in 5% gaseous carbon dioxide. Since plasmid-introduced transformant CHO cells grow in the medium, whereas cells without plasmid introduction die gradually, about 20 colonies of transformed CHO cell that had grown 9-13 days after the start of the cultivation were isolated. […]

human Y2 receptor [2] = target: T1, human Y2 receptor; assay: Human Y2 Receptor G Protein Binding Assay (GBA), [35S]GTPγS; format: biochemical; conditions: EC50 of test compound/EC50 of PYY(3-36) (PYY3-36 taken as 1), hY2R/CHO membrane fraction
Protocol: (3) Test Method: Human Y2 Receptor G Protein Binding Assay (GBA)
The agonist activity of the compound of the present invention against the human Y2 receptor was measured by the method described below.
2 μL of the test compound, serially diluted with DMSO from 100 μM to 1 nM, was dispensed to a 96-well plate, and 100 μL of the membrane fraction, previously diluted with an assay buffer (50 mM Tris, 5 mM MgCl2, 150 mM NaCl, […], 0.03% NaN3, 0.1% BSA, pH 7.4) to 1 μg protein/mL, was dispensed thereto, subsequently, 100 μL of a [^35S]GTPγS (NEG030H, PerkinElmer, previously diluted with the assay buffer to 1 nM) was added, and they were mixed by pipetting. After incubation at room temperature for 120 minutes, the mixture was filtered through the cell harvester FilterMate (PerkinElmer) using the UniFilter-96 GF/C (PerkinElmer), and the filter was washed 3 times with a filtering buffer (50 mM Tris, 5 mM MgCl2, 150 mM NaCl, 0.03% NaN3, 0.05% CHAPS, pH 7.4). Thereafter, UniFilter-96 GF/C was dried in a mechanical drier for 1 hour, 15 μl of the liquid scintillator MicroScint O (PerkinElmer) was added to each well, and a measurement was taken using TopCount (PerkinElmer). The data obtained were analyzed using Prism to calculate the EC50 value. The agonist activity of the test compound was expressed as a ratio to the EC50 value of PYY3-36 taken as 1 (EC50 Ratio: EC50 of test compound/EC50 of PYY(3-36)). The results are shown in the GBA column in Table 5 (Table 5-1-Table 5-10).

Substance | RBA IC50 Ratio (human Y2 receptor [1]) | GBA EC50 Ratio (human Y2 receptor [2])
Ac-[D-Hyp24, Cha27,28,36, Aib31]-PYY(23-36) (Ac-S[dHyp]RH[Cha][Cha]NL[Aib]TRQR[Cha]-NH2; SMILES CC(=O)N[C@@H](CO)C(=O)N1C[C@@H](O)C[C@@H]1C(=O)N[C@@H](CCCNC(=N)N)C(=O)N[C@@H](Cc1c[nH]cn1)C(=O)N[C@@H](CC1CCCCC1)C(=O)N[C@@H](CC1CCCCC1)C(=O)N[C@@H](CC(N)=O)C(=O)N[C@@H](CC(C)C)C(=O)NC(C)(C)C(=O)N[C@H](C(=O)N[C@@H](CCCNC(=N)N)C(=O)N[C@@H](CCC(N)=O)C(=O)N[C@@H](CCCNC(=N)N)C(=O)N[C@@H](CC1CCCCC1)C(N)=O)[C@@H](C)O) [compound No. 114] | 1.1 | 0.9
Ac-[D-Hyp24, Cha27,36, Leu(Me)28, Lys30, Aib31]-PYY(23-36) (Ac-S[dHyp]RH[Cha][tBuAla]NK[Aib]TRQR[Cha]-NH2; SMILES CC(=O)N[C@@H](CO)C(=O)N1C[C@@H](O)C[C@@H]1C(=O)N[C@@H](CCCNC(=N)N)C(=O)N[C@@H](Cc1c[nH]cn1)C(=O)N[C@@H](CC1CCCCC1)C(=O)N[C@@H](CC(C)(C)C)C(=O)N[C@@H](CC(N)=O)C(=O)N[C@@H](CCCCN)C(=O)NC(C)(C)C(=O)N[C@H](C(=O)N[C@@H](CCCNC(=N)N)C(=O)N[C@@H](CCC(N)=O)C(=O)N[C@@H](CCCNC(=N)N)C(=O)N[C@@H](CC1CCCCC1)C(N)=O)[C@@H](C)O) [compound No. 203] | 0.38 | 0.76
Ac-[D-Hyp24, Pya(4)26, Cha27,36, Aib28,31, Lys30]-PYY(23-36) [compound No. 207] | 1.1 | 0.86
Ac-[D-Iva23, D-Pro24, Cha27,28,36, Aib31]-PYY(23-36) (Ac-[dIva][dP]RH[Cha][Cha]NL[Aib]TRQR[Cha]-NH2; SMILES CC[C@@](C)(NC(C)=O)C(=O)N1CCC[C@@H]1C(=O)N[C@@H](CCCNC(=N)N)C(=O)N[C@@H](Cc1c[nH]cn1)C(=O)N[C@@H](CC1CCCCC1)C(=O)N[C@@H](CC1CCCCC1)C(=O)N[C@@H](CC(N)=O)C(=O)N[C@@H](CC(C)C)C(=O)NC(C)(C)C(=O)N[C@H](C(=O)N[C@@H](CCCNC(=N)N)C(=O)N[C@@H](CCC(N)=O)C(=O)N[C@@H](CCCNC(=N)N)C(=O)N[C@@H](CC1CCCCC1)C(N)=O)[C@@H](C)O) [compound No. 183] | 20 | 31
Ac-[D-MeAla22, D-Pro24, Cha27,28,36, Aib31]-PYY(22-36) (Ac-[dNMeA]S[dP]RH[Cha][Cha]NL[Aib]TRQR[Cha]-NH2; SMILES CC(=O)N(C)[C@H](C)C(=O)N[C@@H](CO)C(=O)N1CCC[C@@H]1C(=O)N[C@@H](CCCNC(=N)N)C(=O)N[C@@H](Cc1c[nH]cn1)C(=O)N[C@@H](CC1CCCCC1)C(=O)N[C@@H](CC1CCCCC1)C(=O)N[C@@H](CC(N)=O)C(=O)N[C@@H](CC(C)C)C(=O)NC(C)(C)C(=O)N[C@H](C(=O)N[C@@H](CCCNC(=N)N)C(=O)N[C@@H](CCC(N)=O)C(=O)N[C@@H](CCCNC(=N)N)C(=O)N[C@@H](CC1CCCCC1)C(N)=O)[C@@H](C)O) [compound No. 124] | 3.5 | 6.1

The next lines start with the values.

RBA IC50 Ratio (human Y2 receptor [1]) | GBA EC50 Ratio (human Y2 receptor [2]) | Substance
3.4 | 2.2 | Ac-[D-MeAla24, Cha27,28,36, Aib31]-PYY(23-36) (Ac-S[dNMeA]RH[Cha][Cha]NL[Aib]TRQR[Cha]-NH2; SMILES CC(=O)N[C@@H](CO)C(=O)N(C)[C@H](C)C(=O)N[C@@H](CCCNC(=N)N)C(=O)N[C@@H](Cc1c[nH]cn1)C(=O)N[C@@H](CC1CCCCC1)C(=O)N[C@@H](CC1CCCCC1)C(=O)N[C@@H](CC(N)=O)C(=O)N[C@@H](CC(C)C)C(=O)NC(C)(C)C(=O)N[C@H](C(=O)N[C@@H](CCCNC(=N)N)C(=O)N[C@@H](CCC(N)=O)C(=O)N[C@@H](CCCNC(=N)N)C(=O)N[C@@H](CC1CCCCC1)C(N)=O)[C@@H](C)O) [compound No. 110]
9.9 | 5.8 | Ac-[D-Pic(2)24, Cha27,28,36, Aib31]-PYY(23-36) (Ac-S[dPip]RH[Cha][Cha]NL[Aib]TRQR[Cha]-NH2; SMILES CC(=O)N[C@@H](CO)C(=O)N1CCCC[C@@H]1C(=O)N[C@@H](CCCNC(=N)N)C(=O)N[C@@H](Cc1c[nH]cn1)C(=O)N[C@@H](CC1CCCCC1)C(=O)N[C@@H](CC1CCCCC1)C(=O)N[C@@H](CC(N)=O)C(=O)N[C@@H](CC(C)C)C(=O)NC(C)(C)C(=O)N[C@H](C(=O)N[C@@H](CCCNC(=N)N)C(=O)N[C@@H](CCC(N)=O)C(=O)N[C@@H](CCCNC(=N)N)C(=O)N[C@@H](CC1CCCCC1)C(N)=O)[C@@H](C)O) [compound No. 119]
24 | 11 | Ac-[D-Pro24, Aib25,28,31, Cha27,36, Lys30]-PYY(23-36) (Ac-S[dP][Aib]H[Cha][Aib]NK[Aib]TRQR[Cha]-NH2; SMILES CC(=O)N[C@@H](CO)C(=O)N1CCC[C@@H]1C(=O)NC(C)(C)C(=O)N[C@@H](Cc1c[nH]cn1)C(=O)N[C@@H](CC1CCCCC1)C(=O)NC(C)(C)C(=O)N[C@@H](CC(N)=O)C(=O)N[C@@H](CCCCN)C(=O)NC(C)(C)C(=O)N[C@H](C(=O)N[C@@H](CCCNC(=N)N)C(=O)N[C@@H](CCC(N)=O)C(=O)N[C@@H](CCCNC(=N)N)C(=O)N[C@@H](CC1CCCCC1)C(N)=O)[C@@H](C)O) [compound No. 238]
